Test results reported in PMC12817906, “SVCV phosphoprotein hijacks phase separation to immobilize the IRF3-TBK1 signaling axis and suppress interferon antiviral immunity” (Journal of Virology, 2025).
Several values for one entry are separate records, joined by “and”; a condition that tells them apart may be missing. Equal entries are not always repeated.

Columns and labels:
[1] = biological target: purified recombinant zebrafish IRF3 (His-tagged) (zebrafish); experiment: MST; Monolith NT.115; homotypic titration (SVCV-P with SVCV-P, IRF3 with IRF3), labeled protein with unlabeled ligand at 16 concentrations, room temperature; which label was used is not told
[2] = biological target: mCherry-tagged zebrafish TBK1 protein (zebrafish); experiment: MST; Monolith NT.115; mCherry-tagged TBK1 as the fluorescent protein, unlabeled SVCV-P or IRF3 at 16 concentrations, protein storage buffer, room temperature 10 min, 40% LED, medium MST power
[3] = biological target: the molecule itself; experiment: MST; Monolith NT.115; homotypic titration (SVCV-P with SVCV-P, IRF3 with IRF3), labeled protein with unlabeled ligand at 16 concentrations, room temperature; which label was used is not told
[4] = biological target: T1, mCherry-tagged zebrafish TBK1 protein (zebrafish, UniProt A0ACM8QAS8 1-727); experiment: MST; Monolith NT.115; mCherry-tagged TBK1 as the fluorescent protein, unlabeled SVCV-P or IRF3 at 16 concentrations, protein storage buffer, room temperature 10 min, 40% LED, medium MST power; settings: both partners purified
T1 construct: also called mCherry-TBK1; pFastBac1-mCherry-His-TBK1; source: Sf9 (baculovirus), purified (Ni-NTA)
T1 sequence: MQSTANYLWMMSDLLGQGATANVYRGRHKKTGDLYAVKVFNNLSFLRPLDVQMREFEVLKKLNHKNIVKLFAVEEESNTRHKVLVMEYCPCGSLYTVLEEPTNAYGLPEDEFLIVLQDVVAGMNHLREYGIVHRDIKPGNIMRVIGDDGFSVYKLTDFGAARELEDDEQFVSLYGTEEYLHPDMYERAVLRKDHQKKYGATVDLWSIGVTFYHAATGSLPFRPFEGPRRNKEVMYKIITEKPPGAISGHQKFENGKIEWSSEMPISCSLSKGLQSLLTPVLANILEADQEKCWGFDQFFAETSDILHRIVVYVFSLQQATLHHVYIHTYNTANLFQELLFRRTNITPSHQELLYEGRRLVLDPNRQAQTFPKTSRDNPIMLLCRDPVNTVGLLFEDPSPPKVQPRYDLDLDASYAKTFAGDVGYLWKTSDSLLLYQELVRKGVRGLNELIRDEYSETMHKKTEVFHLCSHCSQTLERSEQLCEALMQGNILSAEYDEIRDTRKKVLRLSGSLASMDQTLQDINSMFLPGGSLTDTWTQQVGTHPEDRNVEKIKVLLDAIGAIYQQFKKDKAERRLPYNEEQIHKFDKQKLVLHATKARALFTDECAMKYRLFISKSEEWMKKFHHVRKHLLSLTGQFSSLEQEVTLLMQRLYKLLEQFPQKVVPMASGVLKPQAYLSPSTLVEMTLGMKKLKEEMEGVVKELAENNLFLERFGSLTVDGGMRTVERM

Row | Molecule | Kd [1] | Kd [2] | Kd [3] | Kd [4]
1 | purified recombinant zebrafish IRF3 (His-tagged) (natural protein) | 70 µM | 81.7 µM | – | –
2 | purified recombinant SVCV-P (His-tagged) (natural protein, phosphoprotein (P) of spring viremia of carp virus; The MST methods say only 'purified SVCV-P'; the His-only construct is surmised (EGFP-GST, EGFP-His and baculovirus EGFP-His forms were also made); also called pET28a-SVCV-P-His; source: E. coli BL21 (DE3), purified (Ni-NTA)) MSLHSKLSESLKAYADLDKTVKEIEEQVSSMEEPVPKTVKYVTFEENLSEEEWESDSGDDDEDSIDDSLIPDYLRESSSITVDEDEEDQKEDMEEHLPTVSWEEEPTGIDIGFGPGIVMPSVSNHEGGTYVRYNGLGGVDPNCKDLISKMMRSLIGQIGNKYGYDIDLFDYQGDFLEVFLPHKPSKEDVRPDIRIGKKNEEGTSKQVSKPRGKEKIVLKTGDECGRFPMNKEAKKREPEGLWEVMKVLSVQFDPWKEDEPPLSLTIRDLFISESEFRLHCNHSQTEREMALVGIKLRRLYNKLYQKYRL | – | – | 30.4 µM | 8.34 µM and 2.98 µM
